B1: extra‐cellular domain (ECD) of rat UNC5H2 (Fc fusion)
chain: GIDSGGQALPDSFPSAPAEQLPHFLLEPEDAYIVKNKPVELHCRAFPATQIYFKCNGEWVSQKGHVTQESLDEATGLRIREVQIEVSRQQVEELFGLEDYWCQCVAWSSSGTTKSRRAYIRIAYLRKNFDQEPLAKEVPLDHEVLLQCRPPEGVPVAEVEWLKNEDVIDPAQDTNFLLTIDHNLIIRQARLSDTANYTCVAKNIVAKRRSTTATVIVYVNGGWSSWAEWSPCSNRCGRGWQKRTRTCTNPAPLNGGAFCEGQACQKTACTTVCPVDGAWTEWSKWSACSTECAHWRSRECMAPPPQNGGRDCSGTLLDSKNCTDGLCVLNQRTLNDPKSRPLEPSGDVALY
B2: extra‐cellular domain (ECD) of human UNC5H3 (domain or fragment)
chain: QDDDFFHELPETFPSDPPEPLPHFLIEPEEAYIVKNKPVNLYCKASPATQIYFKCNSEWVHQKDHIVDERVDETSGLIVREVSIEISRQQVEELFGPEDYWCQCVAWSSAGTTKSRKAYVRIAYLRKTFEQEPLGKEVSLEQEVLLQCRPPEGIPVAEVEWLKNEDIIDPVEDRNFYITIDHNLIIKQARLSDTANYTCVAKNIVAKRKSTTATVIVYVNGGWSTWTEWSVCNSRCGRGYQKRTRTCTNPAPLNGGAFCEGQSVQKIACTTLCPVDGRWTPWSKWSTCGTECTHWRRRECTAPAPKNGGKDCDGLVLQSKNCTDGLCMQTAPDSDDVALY
B3: extra‐cellular domain (ECD) of mouse Neogenin (Fc fusion)
chain: RPASGAAATKSGSPPQSAGASVRTFTPFYFLVEPVDTLSVRGSSVILNCSAYSEPSPNIEWKKDGTFLNLESDDRRQLLPDGSLFISNVVHSKHNKPDEGFYQCVATVDNLGTIVSRTAKLTVAGLPRFTSQPEPSSVYVGNSAILNCEVNADLVPFVRWEQNRQPLLLDDRIVKLPSGTLVISNATEGDGGLYRCIVESGGPPKFSDEAELKVLQDPEEIVDLVFLMRPSSMMKVTGQSAVLPCVVSGLPAPVVRWMKNEEVLDTESSGRLVLLAGGCLEISDVTEDDAGTYFCIADNGNKTVEAQAELTVQVPPGFLKQPANIYAHESMDIVFECEVTGKPTPTVKWVKNGDVVIPSDYFKIVKEHNLQVLGLVKSDEGFYQCIAENDVGNAQAGAQLIILEHDVAIPTLPPTSLTSATTDHLAPATTGPLPSAPRDVVASLVSTRFIKLTWRTPASDPHGDNLTYSVFYTKEGVARERVENTSQPGEMQVTIQNLMPATVYIFKVMAQNKHGSGESSAPLRVETQPEVQLPGPAPNIRAYATSPTSITVTWETPLSGNGEIQNYKLYYMEKGTDKEQDIDVSSHSYTINGLKKYTEYSFRVVAYNKHGPGVSTQDVAVRTLSDVPSAAPQNLSLEVRNSKSIVIHWQPPSSTTQNGQITGYKIRYRKASRKSDVTETLVTGTQLSQLIEGLDRGTEYNFRVAALTVNGTGPATDWLSAETFESDLDETRVPEVPSSLHVRPLVTSIVVSWTPPENQNIVVRGYAIGYGIGSPHAQTIKVDYKQRYYTIENLDPSSHYVITLKAFNNVGEGIPLYESAVTRPHTDTSEVDLFVINAPYTPVPDPTPMMPPVGVQASILSHDTIRITWADNSLPKHQKITDSRYYTVRWKTNIPANTKYKNANATTLSYLVTGLKPNTLYEFSVMVTKGRRSSTWSMTAHGATFELVPTSPPKDVTVVSKEGKPRTIIVNWQPPSEANGKITGYIIYYSTDVNAEIHDWVIEPVVGNRLTHQIQELTLDTPYYFKIQARNSKGMGPMSEAVQFRTPKADSSDKMPNDQALGSAGKGSRLPDLGSDYKPPMSGSNSPHGSPTSPLDSNML
B4: extra‐cellular domain (ECD) of mouse DCC (Fc fusion)
chain: HLQVTGFQIKPFTSLHFVSEPSDAVTMRGGNVLLNCSAESDRGVPVIKWKKDGLILALGMDDRKQQLPNGSLLIQNILHSRHHKPDEGLYQCEASLADSGSIISRTAKVTVAGPLRFLSQTESITAFMGDTVLLKCEVIGEPMPTIHWQKNQQDLNPLPGDSRVVVLPSGALQISRLQPGDSGVYRCSARNPASIRTGNEAEVRILSDPGLHRQLYFLQRPSNVIAIEGKDAVLECCVSGYPPPSFTWLRGEEVIQLRSKKYSLLGGSNLLISNVTDDDSGTYTCVVTYKNENISASAELTVLVPPWFLNHPSNLYAYESMDIEFECAVSGKPVPTVNWMKNGDVVIPSDYFQIVGGSNLRILGVVKSDEGFYQCVAENEAGNAQSSAQLIVPKPAIPSSSILPSAPRDVLPVLVSSRFVRLSWRPPAEAKGNIQTFTVFFSREGDNRERALNTTQPGSLQLTVGNLKPEAMYTFRVVAYNEWGPGESSQPIKVATQPELQVPGPVENLHAVSTSPTSILITWEPPAYANGPVQGYRLFCTEVSTGKEQNIEVDGLSYKLEGLKKFTEYTLRFLAYNRYGPGVSTDDITVVTLSDVPSAPPQNISLEVVNSRSIKVSWLPPPSGTQNGFITGYKIRHRKTTRRGEMETLEPNNLWYLFTGLEKGSQYSFQVSAMTVNGTGPPSNWYTAETPENDLDESQVPDQPSSLHVRPQTNCIIMSWTPPLNPNIVVRGYIIGYGVGSPYAETVRVDSKQRYYSIERLESSSHYVISLKAFNNAGEGVPLYESATTRSITDPTDPVDYYPLLDDFPTSGPDVSTPMLPPVGVQAVALTHEAVRVSWADNSVPKNQKTSDVRLYTVRWRTSFSASAKYKSEDTTSLSYTATGLKPNTMYEFSVMVTKNRRSSTWSMTAHATTYEAAPTSAPKDLTVITREGKPRAVIVSWQPPLEANGKITAYILFYTLDKNIPIDDWIMETISGDRLTHQIMDLSLDTMYYFRIQARNVKGVGPLSDPILFRTLKVEHPDKMANDQGRHGDGGYWPVDTNLIDRSTLNEPPIGQMHPPHGSVTPQKNSN
B5: extra‐cellular domain (ECD) of human UNC5H1 (domain or fragment)
chain: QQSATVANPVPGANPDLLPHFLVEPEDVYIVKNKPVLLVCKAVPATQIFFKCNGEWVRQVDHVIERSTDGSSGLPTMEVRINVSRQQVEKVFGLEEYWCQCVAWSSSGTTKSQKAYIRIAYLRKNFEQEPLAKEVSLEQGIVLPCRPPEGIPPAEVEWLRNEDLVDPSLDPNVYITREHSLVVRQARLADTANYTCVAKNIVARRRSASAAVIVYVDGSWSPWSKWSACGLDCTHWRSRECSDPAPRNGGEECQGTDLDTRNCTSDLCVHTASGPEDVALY

How the values were obtained:
Experiment in all cases: BLI
[1] = molecular target: human netrin‐1 (human, UniProt O95631 25-604)
[2] = molecular target: B1
[3] = molecular target: B5
[4] = molecular target: B3
[5] = molecular target: B2
[6] = molecular target: B4

| Kd [1] | Binder | other results |
| --- | --- | --- |
| 6.9 nM | B1 |  |
| 5.4 nM | B2 |  |
| 7.8 nM | B3 |  |
| 6.3 nM | B4 |  |
| 12.2 nM | B5 |  |
|  | chicken netrin‐2L (netrin‐2‐like) (ligand) not shown | Kd [2]: 8.8 nM; Kd [3]: 106 nM; Kd [4]: 51.7 nM; Kd [5]: 4.3 nM; Kd [6]: 31 nM |

— article PMC8033513 (2021)
